For two molecules, Kd results are on record in article PMC7218058 (2020).

Bounds are passed on as bounds.

Test [1] addresses IgG4 allotypes (anti-RhD). The experiment in a line: SPR.
For test [2], the target named is IgG2 allotypes (anti-RhD). The experiment in a line: SPR. For orientation: Surface plasmon resonance follows binding to a sensor surface in real time, without labels.

B1: human FcγRIIa 131His, biotinylated (receptor)
chain: QAAAPPKAVLKLEPPWINVLQEDSVTLTCQGARSPESDSIQWFHNGNLIPTHTQPSYRFKANNNDSGEYTCQTGQTSLSDPVHLTVLSEWLVLQTPHLEFQEGETIMLRCHSWKDKPLVKVTFFQNGKSQKFSHLDPTFSIPQANHSHSGDYHCTGNIGYTLFSSKPVTITVQVPSMGSSSPMG
modifications: biotin
As usually defined, the Kd is the concentration at which binding is half-saturated. High values mean weaker binding, low ones tighter binding. The molecule B1 displayed a Kd in test [1] greater than 1000 nM.

B2: human FcγRIa (his tag) (receptor)
chain: QVDTTKAVITLQPPWVSVFQEETVTLHCEVLHLPGSSSTQWFLNGTATQTSTPSYRITSASVNDSGEYRCQRGLSGRSDPIQLEIHRGWLLLQVSSRVFTEGEPLALRCHAWKDKLVYNVLYYRNGKAFKFFHWNSNLTILKTNISHNGTYHCSGMGKHRYTSAGISVTVKELFPAPVLNASVTSPLLEGNLVTLSCETKLLLQRPGLQLYFSFYMGSKTLRGRNTSSEYQILTARREDSGLYWCEAATEDGNVLKRSPELELQVLGLQLPTPVWFH
As to B2, the Kd in test [2] was greater than 1000 nM.
